From publication PMC7729563, “Phospho-Mutant Activity Assays Provide Evidence for the Negative Regulation of Transcriptional Regulator PRE1 by Phosphorylation” (International Journal of Molecular Sciences, 2020) come the findings set out here.

Assay [1] addresses T1, GST-BIN2 (BR-… 2, GSK3-like kinase) (Arabidopsis thaliana, UniProt Q39011 1-380).
T1 construct: GST-BIN2 is the only recombinant wild-type BIN2 described (methods 4.11); also called brassinosteroid-insensitive 2; source: E. coli, purified
T1 sequence (looked up): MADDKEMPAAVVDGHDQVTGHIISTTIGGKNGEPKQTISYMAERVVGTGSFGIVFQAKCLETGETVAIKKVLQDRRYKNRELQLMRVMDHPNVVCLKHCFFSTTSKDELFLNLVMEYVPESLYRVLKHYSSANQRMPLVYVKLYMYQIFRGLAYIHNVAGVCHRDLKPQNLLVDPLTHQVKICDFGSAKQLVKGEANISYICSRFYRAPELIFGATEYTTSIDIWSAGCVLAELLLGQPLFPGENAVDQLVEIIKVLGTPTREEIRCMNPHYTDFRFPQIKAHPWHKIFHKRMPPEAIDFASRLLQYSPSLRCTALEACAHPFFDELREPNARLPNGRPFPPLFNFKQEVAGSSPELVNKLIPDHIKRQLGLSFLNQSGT
Briefly: far-Western, overlay or dot blot; overlay assay in vitro (Figure S5A); format not told. The note with it: both partners purified.

Another assay deals with T2, GST-IBH1 (Arabidopsis thaliana, UniProt Q9SKX1 1-156).
T2 construct: also called glutathione S-transferase (GST)-IBH1; source: bacteria, purified on glutathione beads; not shown: GST, N-terminal, kept
T2 sequence (looked up): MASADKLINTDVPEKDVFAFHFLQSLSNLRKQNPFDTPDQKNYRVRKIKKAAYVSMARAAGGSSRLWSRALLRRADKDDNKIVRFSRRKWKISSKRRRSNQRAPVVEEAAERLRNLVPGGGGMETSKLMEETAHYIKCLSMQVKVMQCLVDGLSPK
Kind of assay: pull-down; 1 μg GST-IBH1 on glutathione beads with 1 μg MBP fusion; 20 mM Tris-HCl pH 7.5, 100 mM NaCl, 1 mM EDTA; washes with 300 mM NaCl, 0.5% Triton X-100; anti-MBP immunoblot. To be noted: both partners purified. In general terms: Immunoblotting shows a protein as a band on a membrane.

Numbering of substitutions follows the chain as printed.

B1: MBP-PRE1 (natural protein, Arabidopsis thaliana, UniProt Q9FLE9 1-92, looked up)
chain: MSNRRSRQSSSAPRISDNQMIDLVSKLRQILPEIGQRRRSDKASASKVLQETCNYIRNLNREVDNLSERLSQLLESVDEDSPEAAVIRSLLM
notes: MBP-PRE1 is the only recombinant PRE1 described; source: E. coli, purified on amylose resin beads; not shown: MBP, N-terminal, kept
Take B1: the binding result (in assay [1]; in the assay with GST-IBH1) was “binds” throughout.

B2: MBP-PRE1^S67A (natural protein, Arabidopsis thaliana, UniProt Q9FLE9 1-92, looked up)
chain: B1 chain with S67A
notes: source: E. coli, purified on amylose resin beads; not shown: MBP, N-terminal, kept
With B2, the binding result in the assay with GST-IBH1 is “binds”.
